# Laboratory results taken from publication PMC11633381, “Acarbose impairs gut Bacteroides growth by targeting intracellular glucosidases” (mBio, 2024).
# Biological target: BoGH13BSus (BoSusA), periplasmic GH13 neopullulanase of the Bacteroides ovatus Sus (Bacteroides ovatus)
# Assay: SEC; 0.5 mL of 10.6 mg/mL BoSusA or 8.2 mg/mL SusA on HiPrep 16/60 Sephacryl S-200 HR, 20 mM HEPES, 100 mM NaCl, pH 7.0, 0.5 mL/min; compared with BioRad gel filtration standards
substance,measurement,value
"BoGH13BSus (BoSusA), periplasmic GH13 neopullulanase of the Bacteroides ovatus Sus (enzyme)",stoichiometry N,2
